Among the data in patent publication US11485987B2, “Methods for inducing bioorthogonal reactivity” (University of Delaware, priority 2015, dated 2022) are Km, kcat and kcat/Km values, retold here.

Positions count from the first letter of the chain named. In names and notes the source's numbering stands.

Format in all cases: biochemical
Substrate in data set [1]: O=C(O)CCC(=O)Nc1ccc(C2=NNC(c3ccccn3)=NN2)nc1
As to the kind of experiment: Horseradish peroxidase (HRP) catalyzed oxidation of DHTz to tetrazine. Particulars: other: HRP, peroxide-free, PBS containing EDTA (2.0 mM); pH 7.4; 25.0 °C. How it is done:
Upon addition of horseradish peroxidase (15 nM) the UV-vis spectrum was monitored every 10 seconds. With 50% conversion after 100 seconds, complete conversion of 3a to 4a is observed after 600 seconds, as evidenced by the decrease in the absorption at 292 nm and increase at 325 nm with an isosbestic point at 303 nm. Similar spectral changes are observed when 3a is electrochemically oxidized to 4a in aqueous solution, or when the oxidation of 3a to 4a is photocatalyzed by methylene blue. […] Methylene blue was considered a particularly attractive sensitizer due to its clinical relevance, low molecular weight, low toxicity, high solubility, and an absorption spectrum (λmax 665 nm) that extends to the near IR. Further, methylene blue has previously been explored for applications in photodynamic therapy based on oxidation of indole-3-acetic acid. Rose bengal (λmax 550 nm), used in a range of biomedical applications, was also identified as an excellent sensitizer. […] Methylene blue (4 μM) also catalyzed the conversion of 3a to 4a in the presence of ambient light, with 47% conversion noted after 2 h. […] The mechanism of photooxidation more likely involves electron transfer and is the subject of ongoing study.
As a complement to these photocatalyzed reactions, the inventors observed that HRP can efficiently catalyze the oxidation of 3a in the dark at low enzyme concentration (15 nM) (FIG. 4). While HRP typically requires H2O2 as the terminal oxidant, the addition of HRP to a peroxide-free solution of 3a (30 μM) in PBS led to the rapid formation of 4a (FIG. 4, panel B). […]
Solutions (1 mL) containing 3a (30 μm) in PBS buffer were prepared in a cuvette from stock solutions. Oxidation of 3a to 4a was monitored by recording absorbance at 325 nm every 10 seconds while either hydrogen peroxide (2 mM), HRP (15 nM) or both were added (FIG. 4, panel B). […] The oxidation rate was determined by observing the conversion of 3a to 4a in the first 10 seconds after mixing in HRP (15 nM) and subtracting the background oxidation prior to the addition of HRP.

Substrate in data set [2]: O=C(O)CCCC(=O)Nc1ccc(C2=NNC(c3ccccn3)=NN2)nc1
In words: Oxidation of DHT by APEX2, UV-Vis initial rates and kinetic parameters. Particulars: pH 7.4, 25.0 °C. How it is done: (§1) UV-Vis and fluorescence measurements were conducted in quartz cuvettes. All reactions were conducted in phosphate buffered saline (PBS) containing 100 μM EDTA with a pH=7.4. The PBS was prepared by adding 25 mM phosphate salts (Na2HPO4 and NaH2PO4), 100 mM NaCl, 100 μM EDTA to DI water. EDTA was added to quench free metals that can oxidize DHT. The buffer was pH adjusted to 7.4 using 1 mM HCl and 1 mM NaOH. UV experiments were stirred at 25° C. in a temperature-controlled cuvette holder of the spectrophotometer. Solutions of 15 or 16 were prepared from methanol stock solutions.
(§2) 15 or 16 (60 μM) from methanol stock solutions was added to PBS containing 100 μM EDTA. After 10s, APEX2 (SEQ ID NO:1) (275 nM) was dosed in and oxidation was monitored at 325 nm for 15 and 285 nm for 16 at 60s intervals (FIG. 10B-C).
(§3) 16 (15 μM) DHT from methanol stock solutions was added to PBS containing 100 μM EDTA. After 10s, APEX2 (SEQ ID NO:1) (275 nM) or HRP (15 nM) was dosed in and oxidation was monitored at 285 nm at 10s intervals (FIG. 10D)
(§4) SOD (1 μM) was added to PBS containing 100 μM EDTA. 15 or 16 (60 μM) was added from methanol stock solutions. After 10s, APEX2 (SEQ ID NO:1) or F41A APEX2 (275 nM) was dosed in and oxidation was monitored at 325 nm for 15 and 285 nm for 16 at 60s intervals.
(§5) The initial rate of oxidation was calculated from the first 100 seconds after APEX2 (SEQ ID NO:1) or F41A APEX2 was added ([…]). In the assays where SOD was added, SOD (1 μM) was added to PBS containing 100 μM EDTA and 15 or 16 was dosed in. 10 seconds later, APEX2 (SEQ ID NO:1) or F41A APEX2 ([…]) was added and the rate of oxidation was calculated from the first 100 seconds after APEX2 (SEQ ID NO:1) or F41A APEX2 ([…]) addition. The initial rate of oxidation was adjusted to background oxidation of DHT in PBS with 100 μM EDTA. Kinetic parameters (Table 2) were determined using GraphPad's Prism 6 software from the data presented below (Table 3-4).

Substrate in data set [3]: CCCCNC(=O)C1=NNC(c2ccccn2)=NN1
Described as above. Particulars: pH 7.4, 25.0 °C. How it is done: as §1, §2, §3, §4, §5

Substrate in data set [4]: O=C(O)CCCC(=O)Nc1ccc(C2=NNC(c3ccccn3)=NN2)nc1
In words: Oxidation of DHT by F41A APEX2, UV-Vis initial rates and kinetic parameters. Particulars: other: F41A APEX2 + SOD; pH 7.4; 25.0 °C. How it is done: as §1, §4, §5

Substrate in data set [5]: CCCCNC(=O)C1=NNC(c2ccccn2)=NN1
The data set is described as above. As to conditions: other: F41A APEX2 + SOD; pH 7.4; 25.0 °C. How it is done: as §1, §4, §5

The mark [6] stands for this setting: other: APEX2 (SEQ ID NO: 1) + SOD.
Setting [7] is: other: APEX2 (SEQ ID NO: 1), no SOD.

B1: horseradish peroxidase (HRP) (Armoracia rusticana) (protein)
chain: QLTPTFYDNSCPNVSNIVRDTIVNELRSDPRIAASILRLHFHDCFVNGCDASILLDNTTSFRTEKDAFGNANSARGFPVIDRMKAAVESACPRTVSCADLLTIAAQQSVTLAGGPSWRVPLGRRDSLQAFLDLANANLPAPFFTLPQLKDSFRNVGLNRSSDLVALSGGHTFGKNQCRFIMDRLYNFSNTGLPDPTLNTTYLQTLRGLCPLNGNLSALVDFDLRTPTIFDNKYYVNLEEQKGLIQSDQELFSSPNATDTIPLVRSFANSTQTFFNAFVEAMDRMGNITPLTGTQGQIRLNCRVVNSNS
B1: in data set [1], the Km is 100 µM, the kcat was determined as 27 s⁻¹ and the kcat/Km worked out at 270000 M⁻¹ s⁻¹.

B2: APEX2 (SEQ ID NO:1) (Glycine max; A134P/E112K/K14D/W41F) (protein)
chain: MGKSYPTVSADYQDAVEKAKKKLRGFIAEKRCAPLMLRLAFHSAGTFDKGTKTGGPFGTIKHPAELAHSANNGLDIAVRLLEPLKAEFPILSYADFYQLAGVVAVEVTGGPKVPFHPGREDKPEPPPEGRLPDPTKGSDHLRDVFGKAMGLTDQDIVALSGGHTIGAAHKERSGFEGPWTSNPLIFDNSYFTELLSGEKEGLLQLPSDKALLSDPVFRPLVDKYAADEDAFFADYAEAHQKLSELGFADA
Take B2: the Michaelis constant (Km) in data set [2] (setting [6]) is 41.41 µM; in data set [2] (setting [7]), 47.56 µM; in data set [3] (setting [6]), 17.29 µM; in data set [3] (setting [7]), 22.61 µM. For the same protein, the kcat in data set [2] (setting [6]) was found to be 0.247 s⁻¹; in data set [2] (setting [7]), 0.197 s⁻¹; in data set [3] (setting [6]), 0.115 s⁻¹; in data set [3] (setting [7]), 0.077 s⁻¹. Also, the catalytic efficiency (kcat/Km) in data set [2] (setting [6]) came out at 5956 M⁻¹ s⁻¹; in data set [2] (setting [7]) it was 4134 M⁻¹ s⁻¹; in data set [3] (setting [6]), 6662 M⁻¹ s⁻¹; in data set [3] (setting [7]), 3426 M⁻¹ s⁻¹.

B3: F41A APEX2 (Glycine max; A134P/E112K/K14D/W41A) (protein)
chain: B2 chain with F41A
Regarding B3, in data set [4], the Km came out at 263 µM, the kcat turned out to be 1.72 s⁻¹ and the kcat/Km was found to be 6533 M⁻¹ s⁻¹. Further, in data set [5], the Km came out at 104.6 µM, the kcat is 0.408 s⁻¹ and the catalytic efficiency (kcat/Km) came to 3900 M⁻¹ s⁻¹.

The Km is the concentration of substrate that gives half-maximal velocity. By kcat is commonly meant the maximal rate divided by the concentration of active sites. One may read the kcat/Km as the second-order rate constant that governs catalysis at low substrate concentration.
